We go through 1 protein from FireProtDB (doi:10.1016/j.bpc.2006.10.013).

The conditions of this data set: Clostridium pasteurianum; pH 9.08; Thermal; NMR; Sodium borate 100 mM; reversible: Yes; whole UniProt chain shown.

B1: Rubredoxin wild type, P00268 (protein)
chain: MKKYTCTVCGYIYNPEDGDPDNGVNPGTDFKDIPDDWVCPLCGVGKDQFEEVEE
In general, Tm refers to the temperature at the midpoint of the melting transition. Turning to B1, the Tm was 107 °C, the “heat capacity change of unfolding” value was 0.5 kcal/mol/K and the “unfolding enthalpy (van 't Hoff)” value is 259 kJ/mol.
